T1: NHERF1 PDZ1 domain (residues 11-94) (human, UniProt O14745 11-94)
T1 construct: Na+/H+ exchanger regulatory factor-1 (NHERF1), human, PDZ1 domain, residues 11-94; The PDZ1 part of the chimera m1, written on its own for the pair PDZ1 and CXCR2 peptide of the crystal structure; also called first PDZ domain of NHERF1; source: E. coli BL21 Codon Plus (DE3), purified, as part of the chimeric protein PDZ1-TSTTL; not shown: His6, N-terminal, cleaved; SUMO, N-terminal, cleaved
T1 sequence (looked up): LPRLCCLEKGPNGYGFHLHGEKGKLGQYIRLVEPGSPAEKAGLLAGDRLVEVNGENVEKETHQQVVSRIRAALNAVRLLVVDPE


Tests used:
[1] = molecular target: T1, NHERF1 PDZ1 domain (residues 11-94); assay: crystal structure; chimeric PDZ1(11-94)-TSTTL, hanging drop, 100 mM sodium acetate pH 4.6, 2.7 M sodium chloride, 20 °C; 1.16 Å; the tail of one molecule binds the neighbouring PDZ1; conditions: both partners purified
[2] = molecular target: the molecule itself; assay: as above

Binder	binding result [1]	binding result [2]
TSTTL (Interleukin 8 receptor, beta (CXCR2), human, residues 356-360 (C-terminus); The CXCR2 part of the chimera m1 (joined to residue 94 of PDZ1), written on its own for the pair of the crystal structure; also called CXCR2 pentapeptide; source: E. coli BL21 Codon Plus (DE3), purified, as the C-terminal extension of the chimeric protein PDZ1-TSTTL) [CXCR2 C-terminal peptide TSTTL (residues 356-360)]	binds	
chimeric protein of the NHERF1 PDZ1 domain (residues 11-94) fused at its C-terminus to the CXCR2 residues 356-360 (TSTTL) (other, human, Na+/H+ exchanger regulatory factor-1 (NHERF1), human, PDZ1 domain, residues 11-94; C-terminal extension that corresponds to residues 356-360 of human CXCR2; one molecule in the asymmetric unit; also called PDZ1-CXCR2; not shown: His6, N-terminal, cleaved; SUMO, N-terminal, cleaved) LPRLCCLEKGPNGYGFHLHGEKGKLGQYIRLVEPGSPAEKAGLLAGDRLVEVNGENVEKETHQQVVSRIRAALNAVRLLVVDPETSTTL		binds

Source: article PMC3788737, “Structural Insights into Neutrophilic Migration Revealed by the Crystal Structure of the Chemokine Receptor CXCR2 in Complex with the First PDZ Domain of NHERF1” (PLoS ONE, 2013)
